Substrate: N=C(N)NCCC[C@H](NC(=O)c1ccccc1)C(=O)Nc1ccc([N+](=O)[O-])cc1
Assay: purified protein
Format: biochemical, Eupolyphaga sinensis
Conditions: 50 mM Tris-HCl, pH 7.8, 37°C

Protein	Km	Vmax	kcat/Km
recombinant eupolytin1 (RE) (Eupolyphaga sinensis) (protein, tag released by enterokinase; primer encodes DDDDK-IVGG at the cleavage site; Mono Q purified) IVGGSDANIEDLPYQLSFEYGGSHMCGASIISENWVVTAAHCVDGVSASSARFRAGSSVRGSGGSLHQATQLIANPQYDYYTIDYDVAVARVATPFSYGSGVQPISLISVEPSAGQTATVSGWGTFFSGGSLPRQLQVVSVPIVSPQQCNNDYASYGGITENMICAAEEQGGKDPCQGDSSGPLTVGGQLAGIVSWGAGCAQRGYPGVYSNVATLRKFITDETGVN	3.01 mM	67200 µM/min	8e+06 M⁻¹ s⁻¹
native eupolytin1 (NE) (Eupolyphaga sinensis) (protein, mature protein of 227 residues, 27-residue signal peptide removed (precursor 254); purified natively from mid-gut; 26 kDa on SDS-PAGE) RIVGGSDANIEDLPYQLSFEYGGSHMCGASIISENWVVTAAHCVDGVSASSARFRAGSSVRGSGGSLHQATQLIANPQYDYYTIDYDVAVARVATPFSYGSGVQPISLISVEPSAGQTATVSGWGTFFSGGSLPRQLQVVSVPIVSPQQCNNDYASYGGITENMICAAEEQGGKDPCQGDSSGPLTVGGQLAGIVSWGAGCAQRGYPGVYSNVATLRKFITDETGVN	3.24 mM	63000 µM/min	1e+07 M⁻¹ s⁻¹
